The values that follow come from patent publication US20080057063A1.

This experiment concerns the target cynomolgus αV (HEK-293 cells transfected with cynomolgus αV alone) (cynomolgus). Put plainly: FACS, HEK-293 transfected with cynomolgus αV.

cynomolgus αV (HEK-293 cells transfected with cynomolgus αV alone) (cynomolgus), sequence (chain, as listed by the source): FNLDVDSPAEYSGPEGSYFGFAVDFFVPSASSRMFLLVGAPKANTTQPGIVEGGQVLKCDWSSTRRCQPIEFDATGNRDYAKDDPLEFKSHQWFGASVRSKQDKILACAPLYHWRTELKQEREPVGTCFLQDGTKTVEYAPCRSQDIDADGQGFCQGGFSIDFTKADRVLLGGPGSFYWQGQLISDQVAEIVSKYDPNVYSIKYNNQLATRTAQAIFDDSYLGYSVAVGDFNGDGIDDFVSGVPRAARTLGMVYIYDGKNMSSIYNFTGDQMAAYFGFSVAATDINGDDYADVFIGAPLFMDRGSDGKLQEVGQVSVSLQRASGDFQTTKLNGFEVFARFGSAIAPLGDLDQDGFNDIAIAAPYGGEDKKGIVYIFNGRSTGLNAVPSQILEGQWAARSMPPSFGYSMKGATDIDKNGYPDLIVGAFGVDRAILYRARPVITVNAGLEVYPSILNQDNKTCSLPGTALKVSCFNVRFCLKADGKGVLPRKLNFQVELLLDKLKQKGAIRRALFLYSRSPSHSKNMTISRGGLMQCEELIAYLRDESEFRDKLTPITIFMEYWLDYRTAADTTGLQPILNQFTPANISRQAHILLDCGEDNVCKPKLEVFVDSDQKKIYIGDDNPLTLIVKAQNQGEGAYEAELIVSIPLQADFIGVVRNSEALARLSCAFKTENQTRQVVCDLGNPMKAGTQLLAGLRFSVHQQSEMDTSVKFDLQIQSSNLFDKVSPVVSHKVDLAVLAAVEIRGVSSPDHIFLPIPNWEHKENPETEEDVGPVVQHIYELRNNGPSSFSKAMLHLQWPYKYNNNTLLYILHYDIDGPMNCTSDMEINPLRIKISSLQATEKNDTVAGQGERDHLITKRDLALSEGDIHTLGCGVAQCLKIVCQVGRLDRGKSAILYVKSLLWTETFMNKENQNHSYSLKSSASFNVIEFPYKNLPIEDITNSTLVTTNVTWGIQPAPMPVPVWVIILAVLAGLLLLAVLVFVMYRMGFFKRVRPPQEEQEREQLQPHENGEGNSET

B1: sc 133 (antibody, V domains shown)
VH: QVQLVQSGAEVKKPGASVKVSCKASGYTFTGYYMHWVRQAPGQGLEWMGWINPKSGDTNYAQKFQGRVTLTRDTSTSTAYMELSRLRSDDTAVYYCARRLDVWGQGTTVTVSS
VL: QSVLTQPPSVSAAPGQKVTISCSGSSSNIGNNYVSWYQQLPGTAPKLLIYDNNKRPSGIPDRFSGSKSGTSATLGITGLQTGDEADYYCGTWNSSLSAGYVFGTGTKVTV
Consider B1, for which the percent of cells shifted came out at 5%.
